Measurements taken from paper PMC6711944.

Target: NS1B-NTR (1-103), N-terminal region of the influenza B virus NS1 protein (influenza B virus) (UniProt P03502)
Experiment: ITC; about 0.5 mM ISG15 injected into 250 ul of 0.05 mM NS1B-NTR in the cell, 20 aliquots of 2 ul; 25 °C; 10 mM HEPES-sodium, 500 mM NaCl, pH 7.2; MicroCal iTC200; 'one set of sites' fitting model

## cISG15-K82A-N83A (natural protein)
  Kd: 12 µM
